Results published in US20200289663A1.

Tests used:
[1] = target: human recombinant protein HER2-ECD with his-tag (human) (UniProt P04626); test: ELISA on coated HER2-ECD
[2] = target: human recombinant protein HER2-ECD with his-tag (human) (UniProt P04626); test: ELISA on coated HER2-ECD, average of three independent assays

Chain of RC48-VC-MMAF (VH): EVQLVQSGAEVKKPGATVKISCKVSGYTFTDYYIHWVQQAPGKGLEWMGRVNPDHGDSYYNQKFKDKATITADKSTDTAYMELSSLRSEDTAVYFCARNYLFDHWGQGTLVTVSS
Chain of RC48-VC-MMAF (VL): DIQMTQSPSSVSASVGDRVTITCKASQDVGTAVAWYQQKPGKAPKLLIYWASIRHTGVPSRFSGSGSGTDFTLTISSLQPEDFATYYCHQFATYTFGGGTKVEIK
Chain of RC48-mc-vc-pAB-MMAE (VH): as the sequence (VH) above
Chain of RC48-mc-vc-pAB-MMAE (VL): as the sequence (VL) above
Chain of humanized anti-HER2 monoclonal antibody RC48 (VH): as the sequence (VH) above
Chain of humanized anti-HER2 monoclonal antibody RC48 (VL): as the sequence (VL) above

Binding affinity [1] [ng/mL] | Mole equivalent [1] | Kd [2] [nM] | Substance
2.24 | 15.2 |  | RC48-mc-vc-pAB-MMAE
3.35 | 13.5 |  | RC48-VC-MMAF
 |  | 0.044 | humanized anti-HER2 monoclonal antibody RC48
 |  | 0.077 | human-mouse chimeric anti-HER2 antibody cRC48
